Measurements as given in patent US20250388643A1, “GLUCAGON-LIKE PEPTIDE-2 COMPOSITIONS AND METHODS OF MAKING AND USING SAME” (Amunix Pharmaceuticals, Inc., priority 2011, published 2025).
Where two headings read alike, the source gives them in different places.

Legend:
[1] = molecular target: T1, GLP2 G-protein coupled receptor (Homo sapiens, UniProt O95838); assay: GLP2R calcium flux potency assay (GPCR Profiler, in vitro receptor binding); type: cell-based; details: calcium flux GLP2R cell assay
T1 construct: host or cells: Chem-11 cell
T1 sequence (O95838 1-553): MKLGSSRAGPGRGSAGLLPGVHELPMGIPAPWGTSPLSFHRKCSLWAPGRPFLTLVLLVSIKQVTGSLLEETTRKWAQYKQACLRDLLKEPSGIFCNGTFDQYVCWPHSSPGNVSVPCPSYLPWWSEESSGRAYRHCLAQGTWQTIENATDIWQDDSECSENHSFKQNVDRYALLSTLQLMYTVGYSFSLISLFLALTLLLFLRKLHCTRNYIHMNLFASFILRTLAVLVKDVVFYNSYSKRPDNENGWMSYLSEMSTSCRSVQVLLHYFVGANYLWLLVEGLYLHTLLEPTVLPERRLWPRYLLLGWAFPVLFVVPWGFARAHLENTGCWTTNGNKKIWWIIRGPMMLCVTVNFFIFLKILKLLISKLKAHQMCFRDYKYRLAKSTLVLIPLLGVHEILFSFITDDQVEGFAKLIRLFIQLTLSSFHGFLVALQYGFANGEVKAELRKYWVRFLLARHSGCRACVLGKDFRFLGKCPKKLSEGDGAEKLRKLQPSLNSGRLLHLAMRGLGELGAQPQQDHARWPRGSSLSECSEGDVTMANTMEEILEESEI
Procedure: A receptor binding assay was performed using a GPCR Profiler assay (Millipore) to assess GLP2-2G-XTEN preparations (including AP690). The assay employed a transfected GLP2R cell line (Millipore, Cat #HTS164C) consisting of a Chem-11 human cell stably transfected with the GLP2 G-protein coupled receptor and a G alpha protein that stimulates calcium flux upon agonism of the GLP2 receptor.

[2] = Analytical size exclusion HPLC of GLP2-2G-XTEN (apparent molecular weight); type: physicochemical
Procedure: Gel filtration analysis was performed using a Phenomenex BioSep-SEC-s4000 (7.8 mm×600 mm) column. 20 μg or AP690 GLP2-2G-XTEN fusion protein were analyzed at a flowrate of 0.5 ml/min with 50 mM Phosphate pH 6.5, 300 mM NaCl mobile phase. Elution was monitored using OD215 nm. Column calibration was performed using a size exclusion check standard from Phenomenex, with the following markers: thyroglobulin (670 kDa), IgG (156 kDa), BSA (66 kDa) and ovalbumin ([…]). The result (FIG. 11B) indicated an apparent molecular weight of 1002 kDa for the fusion protein of 83.1 kDa actual weight, for an apparent molecular weight factor of […].

[3] = cynomolgus monkey, in vivo
Procedure: The fusion protein GLP2-2G-XTEN_AE864 was evaluated for its pharmacokinetic properties in male cynomolgus monkeys following either subcutaneous or intravenous administration of the fusion protein at a single dosage level. Three male cynomolgus monkeys were injected IV and 3 male cynomolgus monkeys were injected SC with 2 mg/kg (25 nmol/kg) GLP2-2G-XTEN at time 0. Blood samples were collected from each monkey into prechilled heparinized tubes at pre-dose and at approximately 0.083 h (5 min), 1, 2, 4, 8, 24, 48, 72, 96, 120, 168, 216, 264, and 336 hours after administration of the fusion protein for the first phase of the study. Animals were allowed to “wash-out” for a 6 week period (4 weeks post-last collection time point of Phase 1), the groups were crossed over (SC to IV and IV to SC), and dosed again with the same dose of GLP2-2G-XTEN fusion protein. Blood samples were collected at pre-dose and at approximately 0.083 h (5 min), 1, 2, 4, 8, 24, 48, 72, 96, 120, 168, 216, 264, 336, 384, 432, and 504 hours post-dose in the second phase of the study. All blood samples were processed into plasma by centrifugation and split into two aliquots for analysis by ELISA. The samples were analyzed for fusion protein concentration, performed by anti-GLP2/anti-XTEN ELISA (AS1705) and the results were analyzed using WinNonLin to obtain the PK parameters.

[4] = test system: small intestine growth in rats; assay: Intestinotrophic growth in normal rats (small intestine weight and length); type: in vivo, rat
Procedure: To determine the intestinotrophic properties of GLP2-XTEN, small intestine growth in rats was measured as a primary pharmacodynamic endpoint. […] GLP2-2G-XTEN was dosed at 25 nmol/kg once daily for 12 days. After sacrifice, a midline incision was made, the small intestines were removed, stretched to their maximum length and the length recorded. The fecal material was flushed from the lumen and the small intestinal wet weight recorded. The small intestine length and weight data were analyzed with an ANOVA model with a Tukey/Kramer post-hoc test for pairwise comparisons, with significance at p=0.05.

[5] = mouse, in vivo
Procedure: The fusion protein GLP2-2G-XTEN_AE864 was evaluated for its pharmacokinetic properties in C57Bl/6 mice following subcutaneous (SC) administration. Female C57Bl/6 mice were injected SC with 2 mg/kg (25 nmol/kg) of the GLP2-2G-XTEN (lot AP498A) at 0.25 mg/mL (8 mL/kg). Three mice were sacrificed at each of the following time points: Predose, 0.08, 4, 8, 24, 48, 72, 96 and 120 hours post-dose. Blood samples were collected from the mice and placed into prechilled heparinized tubes at each interval and were separated by centrifugation to recover the plasma. The samples were analyzed for fusion protein concentration, performed by both anti-XTEN/anti-XTEN sandwich ELISA (AS1405) and anti-GLP2/anti-XTEN sandwich ELISA (AS1717), and the results were analyzed using WinNonLin to obtain the PK parameters.

[6] = normal Sprague-Dawley rats, SC 12 days, peptide 12.5 nmol/kg twice daily, fusion protein 25 nmol/kg once daily

B1: GLP2-2G-XTEN_AE864: fusion protein of GLP-2 with glycine at position 2 linked at the C-terminus to XTEN AE864; sequence of FIG. 28 (SEQ ID NO: 798) (protein)
chain: HGDGSFSDEMNTILDNLAARDFINWLIQTKITDGGSPAGSPTSTEEGTSESATPESGPGTSTEPSEGSAPGSPAGSPTSTEEGTSTEPSEGSAPGTSTEPSEGSAPGTSESATPESGPGSEPATSGSETPGSEPATSGSETPGSPAGSPTSTEEGTSESATPESGPGTSTEPSEGSAPGTSTEPSEGSAPGSPAGSPTSTEEGTSTEPSEGSAPGTSTEPSEGSAPGTSESATPESGPGTSTEPSEGSAPGTSESATPESGPGSEPATSGSETPGTSTEPSEGSAPGTSTEPSEGSAPGTSESATPESGPGTSESATPESGPGSPAGSPTSTEEGTSESATPESGPGSEPATSGSETPGTSESATPESGPGTSTEPSEGSAPGTSTEPSEGSAPGTSTEPSEGSAPGTSTEPSEGSAPGTSTEPSEGSAPGTSTEPSEGSAPGSPAGSPTSTEEGTSTEPSEGSAPGTSESATPESGPGSEPATSGSETPGTSESATPESGPGSEPATSGSETPGTSESATPESGPGTSTEPSEGSAPGTSESATPESGPGSPAGSPTSTEEGSPAGSPTSTEEGSPAGSPTSTEEGTSESATPESGPGTSTEPSEGSAPGTSESATPESGPGSEPATSGSETPGTSESATPESGPGSEPATSGSETPGTSESATPESGPGTSTEPSEGSAPGSPAGSPTSTEEGTSESATPESGPGSEPATSGSETPGTSESATPESGPGSPAGSPTSTEEGSPAGSPTSTEEGTSTEPSEGSAPGTSESATPESGPGTSESATPESGPGTSESATPESGPGSEPATSGSETPGSEPATSGSETPGSPAGSPTSTEEGTSTEPSEGSAPGTSTEPSEGSAPGSEPATSGSETPGTSESATPESGPGTSTEPSEGSAPG
With B1 the “potency compared to GLP2-2G” value [1] was “about 2%”, the apparent molecular weight ([2]; SEC, BioSep-SEC-s4000, 50 mM Phosphate pH 6.5, 300 mM NaCl, lot AP690) was 1002 kDa and the “apparent molecular weight factor” value ([2]; apparent vs 83.1 kDa actual weight) was 12.5. The Cl [3] was 1.6 mL/h, the “T ½” value [3] was 125 h and the Vd [3] was 98 mL/kg. For the same molecule, the AUCInf ([3]; iv, 2 mg/kg) was 3,700,000 hr * ng/mL, the Cl ([3]; iv, 2 mg/kg) was 1.9 mL/h and the T ½ ([3]; iv, 2 mg/kg) was 110.0 h. For the same molecule, the Vd ([3]; iv, 2 mg/kg) was 90 mL/kg, the AUCInf ([3]; sc, 2 mg/kg) was 3,400,000 hr * ng/mL and the T ½ ([3]; sc, 2 mg/kg) was 120.0 h. For the same molecule, the Vd ([3]; sc, 2 mg/kg) was 110 mL/kg, the “small intestine growth compared with GLP2-2G peptide” value ([4]; equal nmol/kg dosing) was “as good or better than GLP2-2G peptide” and the “increase in small intestine length” value [4, 6] was 9%. The “increase in small intestine weight” value [4, 6] was 31%, the “increase in small intestine length” value ([4]; normal rats, 25 nmol/kg once daily for 12 days) was 10 cm and the Cl [5] was 0.07 mL/h. The “T ½” value [5] was 33.9 h and the Vd [5] was 140 mL/kg.
